{"source": "patent US8598081B2", "about": "“Specific delivery of agrochemicals” (priority 2010, dated 2013)", "key": {"[1]": {"test_system": "gum arabic", "test": "VHH binding to gum arabic in ELISA", "parameters": "species or system acacia tree", "method": "Titration of VHH antibody fragments was performed on ELISA plates (Maxisorp, Nunc) coated with 100 μl per well 100 μg/ml gum arabic in 50 mM carbonate pH 9.6. Plates were coated at 4° C. overnight and coating was continued at room temperature for 1 hour on the next day. Plates were washed three times with PBS/0.05%-TWEEN®-20 and blocked with 5% skimmed milk in PBS for 1 hour. Four-fold serial dilutions of purified VHH antibody fragments were prepared in 1% MPBS/0.05%-TWEEN®-20 in polypropylene 96-well plates. Antibody concentrations ranged from 3 μg/ml to 12 ng/ml. Antibody dilutions were transferred to the gum arabic-coated plates and VHH antibody fragments were allowed to bind for 1 hour at room temperature. Bound VHH were detected with sequential incubations with monoclonal mouse anti-histidine antibodies (Abd Serotec) and rabbit anti-mouse IgG whole molecule antibodies conjugated with alkaline phosphatase (RaM/AP) (Sigma) in 1% MPBS/0.05%-TWEEN®-20. Unbound antibodies were removed by washing three times with PBS/0.05%-TWEEN®-20 after each antibody incubation. The plates were washed an additional two times with PBS and 100 μl pNPP disodium hexahydrate substrate (Sigma) was added to each well. The absorbance at 405 nm was measured and plotted as function of antibody concentration (see Table 1)."}, "[2]": {"target": "T1, potato lectin (Solanum tuberosum, UniProt Q9S8M0)", "T1 construct": "purchased Sigma", "T1 sequence (Q9S8M0 whole entry, looked up)": "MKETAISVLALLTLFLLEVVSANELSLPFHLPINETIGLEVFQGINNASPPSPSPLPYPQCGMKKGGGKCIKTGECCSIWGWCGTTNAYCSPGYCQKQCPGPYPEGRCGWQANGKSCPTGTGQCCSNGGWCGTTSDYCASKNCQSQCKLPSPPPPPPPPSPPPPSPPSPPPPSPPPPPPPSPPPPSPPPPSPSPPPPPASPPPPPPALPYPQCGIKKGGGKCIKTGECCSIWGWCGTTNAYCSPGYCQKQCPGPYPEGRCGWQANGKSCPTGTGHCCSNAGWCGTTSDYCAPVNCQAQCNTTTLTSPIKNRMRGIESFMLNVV", "test": "VHH binding to potato lectin in ELISA", "settings": "Table 2; Blank (no antigen coating); VHH 3 μg/ml", "method": "ELISA plates (Maxisorp, Nunc) coated with 100 μl per well 100 μg/ml potato lectin (Sigma) in PBS were coated at 4° C. overnight and coating was continued at room temperature for 1 hour on the next day. Plates were washed three times with PBS/0.05%-TWEEN®-20 and blocked with 5% skimmed milk in PBS for 1 hour. VHH (3 μg/ml) were transferred to the potato lectin-coated plates and VHH antibody fragments were allowed to bind for 1 hour at room temperature. Bound VHH were detected with sequential incubations with monoclonal mouse anti-histidine antibodies (Abd Serotec) and rabbit anti-mouse IgG whole molecule antibodies conjugated with alkaline phosphatase (RaM/AP) (Sigma) in 1% MPBS/0.05%-TWEEN®-20. Unbound antibodies were removed by washing three times with PBS/0.05%-TWEEN®-20 after each antibody incubation. The plates were washed an additional two times with PBS and 100 μl pNPP disodium hexahydrate substrate (Sigma) was added to each well and the absorbance at 405 nm was measured (see Table 2)."}, "[3]": {"test": "ELISA-like assay, microcapsules with monovalent or bivalent VHH, unrelated antigen", "format": "binding", "parameters": "unit not given beside the values", "settings": "Uvitex microcapsules", "source_text": "(§1) Bivalent VHH constructs were produced in bacteria by cloning two VHH sequences in tandem into the pASF22 vector, creating a fusion of two VHH with a 9 glycine-serine linker (GGGGSGGGS (SEQ ID NO:50)) in between the two VHH. pASF22 is an in-house produced pMES derivative. The tags that were used were C-terminal c-Myc (EQKLISEEDLN (SEQ ID NO:51)) and hexahistidine (HHHHHH (SEQ ID NO:52)). A triple alanine linker (AAA) was placed in between the C-terminal end of the VHH and the c-Myc tag and a glycine-alanine-alanine (GAA) linker was used in between the C-terminal end of the c-Myc tag and the hexahistidine tag. The complete sequence C-terminal of the bivalent VHH that was used: AAA-EQKLISEEDLN-GAA-HHHHHH (SEQ ID NO:53). Fresh overnight cultures were produced by starting from colony streaks and inoculation of 2×TY media supplemented with 2% glucose and 100 μg/ml ampicillin. The overnight cultures were used to inoculate fresh cultures 1:100 in 2×TY media with 0.1% glucose and 100 μg/ml ampicillin. After growing at 37° C. in a shaking incubator for 3 hours, IPTG was added to a 1 mM final concentration and recombinant bivalent VHH were produced during an additional incubation for 4 hours. Cells were spun down and resuspended in 1/50th of the original culture volume of PBS and incubated with head-over-head rotation at 4° C. for 30 minutes. Spheroplasts were spun down by centrifugation at 3,000 g and 4° C. for 20 minutes. Supernatants were transferred to fresh tubes and centrifuged again at 3,000 g and 4° C. for 20 minutes. The supernatant was collected and sodium chloride concentration was adjusted to 500 mM and imidazole concentration to 20 mM. Hexahistidine-tagged bivalent VHH were purified from the extracts using HisTrap FF Crude 5 ml IMAC columns (GE Lifesciences) and HiLoad 16/60 Superdex 75 prep grade gel filtration column (GE Lifesciences) on an AKTAxpress system (GE Lifesciences) following standard procedures.\n(§2) Next, it was investigated if binding of microcapsules to surfaces could be improved by using targeting agents comprising multivalent VHH. A series of parallel couplings was performed with equal amounts of monovalent VHH, bivalent VHH, and unrelated VHH. Success of coupling of VHH and multivalent VHH were analyzed as described in Example 4. An ELISA-like assay was performed using high bind half area microplates (Greiner Bio-One) coated with 5 μg/well potato lectin. Control wells included blank wells or wells coated with unrelated antigens. Plates were washed three times with PBS with 0.05%-TWEEN®-20 and blocked with 5% skimmed milk in PBS for 1 to 2 hours. VHH-coupled Uvitex-containing microcapsules were diluted to appropriate densities in 1% skimmed milk in PBS with 0.05%-TWEEN®-20. Five-fold serial dilution series were prepared and allowed to bind to the surface to compare binding of microcapsules coupled with monovalent or bivalent VHH. Microcapsules were added to the antigen-coated or control wells and allowed to bind for 1 hour. Unbound microcapsules were removed by washing five times with PBS with 0.05%-TWEEN®-20. The bottoms of ELISA plate wells were analyzed for bound microcapsules on a macrozoom microscope system (Nikon). Microcapsules were counted using Volocity image analysis software (Perkin Elmer). A DAPI filter was used to visualize Uvitex microcapsules. […] The surface area of microcapsules with coupled bivalent VHH was 15-fold above the surface area of blank microcapsules applied at this microcapsule density while the surface area of microcapsules with monovalent VHH was only six-fold above the surface area of blank microcapsules applied at this microcapsule density. This difference could be explained by an increase in binding strength due to additional avidity of the bivalent VHH compared to monovalent VHH, it could also be that the use of bivalent VHH increases flexibility and spacer length of the coupled targeting agents on microcapsules, or a combination of both."}, "[4]": {"target": "T1, potato lectin", "test": "ELISA-like assay, microcapsules with monovalent or bivalent VHH, potato lectin", "format": "binding", "parameters": "Surface area of bound microcapsules: unit not given here", "source_text": "as §1, §2"}, "[5]": {"settings": "Table 2, gum arabic coating, VHH 3 μg/ml"}, "[6]": {"settings": "[VHH] 3 μg/ml (200 nM), gum arabic − (well without gum arabic)"}}}
{"molecule": "VHH 5C4: VHH sequence; SEQ ID NO:18 by order of the list (protein, listed as Lama glama, 5C4) VHH: QVQLQESGGGLVQPGGSLRLSCAASGFSLRYFGIGWFRQVAGKEREPVSCSNVRDGNTYYADSVKGRFTISRDNVRNTLYLQMNSLKPEDTAVYSCATTDCEATTWGTYRGYFGQGTQVTVSS", "values": [{"measurement": "absorbance at 405 nm", "setting": "[1]; [5]", "result": 0.873}, {"measurement": "absorbance at 405 nm", "setting": "[1]; [6]", "result": 0.082}, {"measurement": "absorbance at 405 nm", "setting": "[2]", "result": 0.071}]}
{"molecule": "VHH 5G5: VHH sequence; SEQ ID NO:24 by order of the list (protein, listed as Lama glama, 5G5) VHH: QVQLQESGGGLVQPGGSLRLSCAASGFSLRYFGIGWFRQAAGKEREGISCSNVRDGNTYYADSVKGRFTISRDNVRNMLYLQMNNLKPDDTAVYSCATTDCEATTWGTYRGYFGQGTQVTVSS", "values": [{"measurement": "absorbance at 405 nm", "setting": "[1]; [5]", "result": 0.751}, {"measurement": "absorbance at 405 nm", "setting": "[1]; [6]", "result": 0.077}, {"measurement": "absorbance at 405 nm", "setting": "[2]", "result": 0.073}]}
{"molecule": "VHH 7D2: VHH sequence; SEQ ID NO:28 by order of the list (protein, listed as Lama glama, 7D2) VHH: QVQLQESGGGLVQPGRSLKVACAAAGFSLRYYGIGWFRQAPGKEREAVSCTSANDGSTYYRDSVRGRFTISRDDGKNTVYLQMNRLKPEDTAVYYCATTDCDATSWGTWINYYGQGTQVTVSS", "values": [{"measurement": "absorbance at 405 nm", "setting": "[1]; [5]", "result": 0.274}, {"measurement": "absorbance at 405 nm", "setting": "[1]; [6]", "result": 0.074}, {"measurement": "absorbance at 405 nm", "setting": "[2]", "result": 0.072}]}
{"molecule": "Bivalent VHH 3E6: Uvitex-containing microcapsules coupled with bivalent VHH, a fusion of two VHH with a 9 glycine-serine linker (conjugate) QVQLQESGGGLVQPGGTLSLSCAASGFNVRWYGMGWFRQAPGKEREGVACISALQETTAYADSVKGRFTLSRDNPKNTLSLQMNNLQPEDTGVYYCATTDCDDSSRMTYTSYLGQGTQVTVSSGGGGSGGGSQVQLQESGGGLVQPGGTLSLSCAASGFNVRWYGMGWFRQAPGKEREGVACISALQETTAYADSVKGRFTLSRDNPKNTLSLQMNNLQPEDTGVYYCATTDCDDSSRMTYTSYLGQGTQVTVSSAAAEQKLISEEDLNGAAHHHHHH", "values": [{"measurement": "Surface area of bound microcapsules", "setting": "[3]; no coating (second series, with unrelated antigen rows), surface coverage 100%", "result": 55.841}, {"measurement": "Surface area of bound microcapsules", "setting": "[3]; unrelated antigen, surface coverage 20%", "result": 22.114}, {"measurement": "Surface area of bound microcapsules", "setting": "[3]; unrelated antigen, surface coverage 100%", "result": 45.677}, {"measurement": "more microcapsules retained in the well compared to microcapsules with monovalent VHH", "setting": "[4]; application of 25-fold less microcapsules, potato lectin", "result": 160, "unit": "%"}, {"measurement": "more microcapsules retained in the well compared to microcapsules with monovalent VHH", "setting": "[4]; highest density of microcapsules applied (fully cover the bottom of the well), potato lectin", "result": 17, "unit": "%"}, {"measurement": "Surface area of bound microcapsules", "setting": "[4]; no coating (first series, with potato lectin rows), surface coverage 100%, Uvitex microcapsules", "result": 66.176}, {"measurement": "binding to antigen-coated surface when coupled to a microcapsule", "setting": "[4]; potato lectin 5 μg/well, Uvitex microcapsules", "result": "capable of binding specifically"}, {"measurement": "Surface area of bound microcapsules", "setting": "[4]; potato lectin, surface coverage 4%, Uvitex microcapsules", "result": 155.759}, {"measurement": "Surface area of bound microcapsules", "setting": "[4]; potato lectin, surface coverage 20%, Uvitex microcapsules", "result": 511.303}, {"measurement": "Surface area of bound microcapsules", "setting": "[4]; potato lectin, surface coverage 100%, Uvitex microcapsules", "result": 490.546}]}
{"molecule": "VHH5E5: VHH sequence; SEQ ID NO:21 by order of the list (protein, listed as Lama glama, 5E5) VHH: QVQLQESGGGLVQPGGSLTLSCTASGFAMRRFGIGWFRQVVGKEREGVSCSNVHDGSTYYANYVKGRFTIVRDDTKNMLYLHMNSLRAEDTGVYSCATTDCEATAWGTYRGYFGQGTQVTVSS", "values": [{"measurement": "absorbance at 405 nm", "setting": "[1]; [6]", "result": 0.073}]}
{"molecule": "VHH7C2: VHH sequence; SEQ ID NO:27 by order of the list (protein, listed as Lama glama, 7C2) VHH: QVQLQESGGGLVQPGGSLRLSCAAFGFALANYGIGWFRQAPGKDRERVSCDSVDDGSTHYSNSVQGRFTIIRDNAKNTVFLQMNSLKAEDTAVYYCATTDCDATTWGTWINYRGQGTQVTVSS", "values": [{"measurement": "absorbance at 405 nm", "setting": "[1]; [6]", "result": 0.077}]}
{"molecule": "VHH5F5: VHH sequence; SEQ ID NO:22 by order of the list (protein, listed as Lama glama, 5F5) VHH: QVQLQESGGGLVQPGGSLRLSCAASGFPLGLYGIGWFRQAPGKEREAVSCDSVDDGSTNYLDSVKGRFTISRDNAKNMVYLQMNSLKPEDTAVYYCATTDCDAKAWGTWTNYRGQGTQVTVSS", "values": [{"measurement": "absorbance at 405 nm", "setting": "[1]; [6]", "result": 0.090}]}
{"molecule": "VHH7A2: VHH sequence; SEQ ID NO:26 by order of the list (protein, listed as Lama glama, 7A2) VHH: QVQLQESGGGSVHPGGSLTLSCLASGFSLSNYGMGWFRQAPGKEREAVSCTSVPNGHIYYAESVKGRFTIVRDNAGNSVYLQMNSLKPEDAANYFCATTDCEAAHWGTWVNYYGQGTQVTVSS", "values": [{"measurement": "absorbance at 405 nm", "setting": "[1]; [6]", "result": 0.075}]}
